The values that follow come from article PMC7925532.

The assay addresses EGFR Kinase Domain Duplication (EGFR-KDD), eGFP or mCherry fusion (human) (UniProt P00533). The experiment in a line: PIE-FCCS (pulsed interleaved excitation fluorescence cross-correlation spectroscopy); live COS-7 cells co-expressing eGFP and mCherry fusions (1:1 plasmids), peripheral membrane, 37 °C, Opti-MEM; stimulated with 2 μg/mL recombinant human EGF; median fraction correlated (ƒc).

“EGFR Kinase Domain Duplication (EGFR-KDD), eGFP or mCherry fusion (from UniProt P00533 25-1038; P00533 688-1210) (receptor)”: the median cross-correlation value (ƒc) stood at 0.17.
